Test results from publication PMC5152705.

Legend:
[1] = target: recombinant fragment of human SP-A (rfhSP-A) (human); assay: SEC; gel permeation chromatography, Superdex 200 HR 10/30, TBS with 5 mM EDTA, pH 7.4; rfhSP-A purified by mannan affinity chromatography; also after freeze/thawing
[2] = target: recombinant fragment of human SP-A (rfhSP-A) (human); assay: SEC; gel permeation chromatography, Superdex 200 HR 10/30, TBS with 5 mM EDTA, pH 7.4; rfhSP-A after IMAC and removal of the NT tag; quaternary structure estimated by comparison with molecular weight standards

stoichiometry N [1]: 3
percent dimeric [2]: 15%
percent monomeric [2]: 9%
percent trimeric [2]: 72%
stoichiometry N [2]: 3
Substance: recombinant fragment of human SP-A (rfhSP-A) (domain or fragment)
